Laboratory results reported in publication PMC9691366, “Modulating the pharmacokinetic profile of Actinium-225-labeled macropa-derived radioconjugates by dual targeting of PSMA and albumin” (Theranostics, 2022).

What was measured:
[1] = Ex vivo biodistribution in LNCaP tumor-bearing SCID mice; conditions: mouse, in vivo, 50 kBq per mouse; for tissue uptake at 1 h: 1 h p.i.; for tissue uptake at 4 h: 4 h p.i.; for tissue uptake at 24 h: 24 h p.i.; for tissue uptake at 48 h: 48 h p.i.; for tissue uptake at 72 h: 72 h p.i.; for tissue uptake at 120 h: 120 h p.i.; for tissue uptake at 168 h: 168 h p.i.
From the text: (§1) The biodistribution experiments with [^225Ac]Ac-mcp-M-alb-PSMA and [^225Ac]Ac-mcp-D-alb-PSMA were accomplished using LNCaP tumor-bearing mice. The SCID male mice (ENVIGO, Indianapolis, IN, USA) 8 weeks old were subcutaneously xenografted into the right flank with 10∙10^6 LNCaP cells (ATCC, Manassas, VA, USA) mixed with Matrigel Matrix (Corning Inc., Corning, NY, USA) at a 1:1 ratio. The tumor growth was periodically monitored by caliper-based measurements. When the tumor volume reached 200-300 mm^3 (i.e., approx. 6 weeks after the xenografting of the cells), the mice were enrolled in the biodistribution study. All experimental animals were housed in a specific-pathogen-free animal facility and all experiments with animals were performed in accordance with appropriate legal norms (Czech Law No. 246/1992) and with the approval of the Ministry of Education, Youth and Sports (MSMT-35035/2019-3) and approval of the Ethical committee of Faculty of Medicine and Dentistry, Palacky University in Olomouc. The number of animals was reduced as much as possible (n = 3-4 per group and time point) for in vivo experiments in order to strictly follow 3Rs principle.
(§2) For the purpose of biodistribution studies, the ^225Ac-radioconjugates were diluted with saline. The diluted ^225Ac-radioconjugates were applied retro-orbitally (r.o.) to the experimental animals at a dose of 50 kBq per mouse corresponding to 10 pmol of the PSMA-inhibitor. The radioactivity application was carried out under 2% isoflurane anesthesia (FORANE, Abbott Laboratories, Abbott Park, IL, USA) to minimize animal suffering and to prevent animal motion. The mice were sacrificed by cervical dislocation 1, 4, 24, 48, 72, and 120 h (plus 168 h for [^225Ac]Ac-mcp-D-alb-PSMA) post-injection and organs of interest (blood, spleen, pancreas, stomach, intestine, kidneys, liver, heart, lungs, muscle, bone, and tumor) were collected. The organs were weighed, and their radioactivity was counted on an automatic gamma counter. The uptake of the ^225Ac-radioconjugates was expressed as a percentage of injected dose per gram of the corresponding organ (%ID/g). The area under the curve (AUC) was determined for both tested PSMA ligands from non-decay-corrected data obtained from the ex vivo biodistribution data of the tumors, kidneys, and blood.

[2] = system: LNCaP tumor-bearing SCID mice; assay: as above
From the text: as §1, §2

[3] = system: LNCaP tumor-bearing SCID mice; format: in vivo, mouse
Procedure: Formalin-fixed and paraffin-embedded mouse tissues were cut in 5 µm sections and immunostained with appropriate antibodies according to standard techniques as well as with standard H&E staining. Antigen retrieval was performed in citrate buffer (pH 6) for all primary antibodies: Ki-67 (clone MIB1, DAKO; dilution 1:200), γH2AX (clone JBW301, Millipore; dilution 1:2500) and PSMA (clone YPSMA-1, Abcam; dilution 1:1000). The presence or absence of necrosis and its percentage in the tumor samples were evaluated by experienced pathologist. […] The data were analyzed using Kruskal-Wallis test followed by Dunn post hoc test using GraphPad Prism version 7.05 (GraphPad Software, San Diego, CA, USA).

[4] = non-decay corrected biodistribution data, mean ± SD

## O=C(O)CC[C@H](NC(=O)N[C@@H](CCCCNC(=O)[C@H](Cc1ccc2ccccc2c1)NC(=O)[C@H]1CC[C@H](CNC(=O)[C@H](CCCCn2cc(COc3cc(CN4CCOCCOCCN(Cc5cc(OCc6cn(CCCC[C@H](NC(=O)[C@H](CCC(=O)O)NC(=O)CCCc7ccc(I)cc7)C(=O)NC[C@H]7CC[C@H](C(=O)N[C@@H](Cc8ccc9ccccc9c8)C(=O)NCCCC[C@H](NC(=O)N[C@@H](CCC(=O)O)C(=O)O)C(=O)O)CC7)nn6)cc(C(=O)O)n5)CCOCCOCC4)nc(C(=O)O)c3)nn2)NC(=O)[C@H](CCC(=O)O)NC(=O)CCCc2ccc(I)cc2)CC1)C(=O)O)C(=O)O [[^225Ac]Ac-mcp-D-alb-PSMA, metal not drawn]
[1]; male, SCID, total radioactivity
  tissue to tissue ratio: 1420
[1]; blood uptake (AV)
  tissue uptake at 1 h: 8.44 %ID/g
  tissue uptake at 4 h: 6.5 %ID/g
  tissue uptake at 24 h: 2.85 %ID/g
  tissue uptake at 48 h: 1.22 %ID/g
  tissue uptake at 72 h: 0.7 %ID/g
  tissue uptake at 120 h: 0.2 %ID/g
  tissue uptake at 168 h: 0.11 %ID/g
[1]; femur uptake (AV)
  tissue uptake at 1 h: 0.84 %ID/g
  tissue uptake at 4 h: 0.89 %ID/g
  tissue uptake at 24 h: 0.74 %ID/g
  tissue uptake at 48 h: 0.96 %ID/g
  tissue uptake at 72 h: 0.87 %ID/g
  tissue uptake at 120 h: 1.22 %ID/g
  tissue uptake at 168 h: 1.3 %ID/g
[1]; heart uptake (AV)
  tissue uptake at 1 h: 2.47 %ID/g
  tissue uptake at 4 h: 2.32 %ID/g
  tissue uptake at 24 h: 1.21 %ID/g
  tissue uptake at 48 h: 0.94 %ID/g
  tissue uptake at 72 h: 0.82 %ID/g
  tissue uptake at 120 h: 0.88 %ID/g
  tissue uptake at 168 h: 0.83 %ID/g
[1]; intestine uptake (AV)
  tissue uptake at 1 h: 0.8 %ID/g
  tissue uptake at 4 h: 0.64 %ID/g
  tissue uptake at 24 h: 0.58 %ID/g
  tissue uptake at 48 h: 0.37 %ID/g
  tissue uptake at 72 h: 0.26 %ID/g
  tissue uptake at 120 h: 0.19 %ID/g
  tissue uptake at 168 h: 0.17 %ID/g
[1]; kidneys uptake (AV)
  tissue uptake at 1 h: 9.23 %ID/g
  tissue uptake at 4 h: 21.8 %ID/g
  tissue uptake at 24 h: 43.7 %ID/g
  tissue uptake at 48 h: 59.9 ± 6.46 %ID/g
  tissue uptake at 72 h: 50.1 %ID/g
  tissue uptake at 120 h: 37.6 %ID/g
  tissue uptake at 168 h: 33.7 ± 9.57 %ID/g
[1]; liver uptake (AV)
  tissue uptake at 1 h: 2.42 %ID/g
  tissue uptake at 4 h: 2.45 %ID/g
  tissue uptake at 24 h: 2.52 %ID/g
  tissue uptake at 48 h: 3.73 %ID/g
  tissue uptake at 72 h: 3.39 %ID/g
  tissue uptake at 120 h: 3.9 %ID/g
  tissue uptake at 168 h: 4.31 %ID/g
[1]; lung uptake (AV)
  tissue uptake at 1 h: 5.67 %ID/g
  tissue uptake at 4 h: 4.57 %ID/g
  tissue uptake at 24 h: 2.3 %ID/g
  tissue uptake at 48 h: 2.75 %ID/g
  tissue uptake at 72 h: 2.98 %ID/g
  tissue uptake at 120 h: 7.5 %ID/g
  tissue uptake at 168 h: 4.95 %ID/g
[1]; maximal uptake in spleen
  tissue uptake: 11.4 ± 2.89 %ID/g
[1]; muscle uptake (AV)
  tissue uptake at 1 h: 0.49 %ID/g
  tissue uptake at 4 h: 0.58 %ID/g
  tissue uptake at 24 h: 0.28 %ID/g
  tissue uptake at 48 h: 0.29 %ID/g
  tissue uptake at 72 h: 0.2 %ID/g
  tissue uptake at 120 h: 0.24 %ID/g
  tissue uptake at 168 h: 0.22 %ID/g
[1]; pancreas uptake (AV)
  tissue uptake at 1 h: 0.68 %ID/g
  tissue uptake at 4 h: 0.58 %ID/g
  tissue uptake at 24 h: 0.5 %ID/g
  tissue uptake at 48 h: 0.35 %ID/g
  tissue uptake at 72 h: 0.39 %ID/g
  tissue uptake at 120 h: 0.42 %ID/g
  tissue uptake at 168 h: 0.37 %ID/g
[1]; spleen uptake (AV)
  tissue uptake at 1 h: 7.11 %ID/g
  tissue uptake at 4 h: 6.21 %ID/g
  tissue uptake at 24 h: 5.24 %ID/g
  tissue uptake at 48 h: 8.33 %ID/g
  tissue uptake at 72 h: 10.2 %ID/g
  tissue uptake at 120 h: 10 %ID/g
  tissue uptake at 168 h: 11.4 %ID/g
[1]; stomach uptake (AV)
  tissue uptake at 1 h: 0.98 %ID/g
  tissue uptake at 4 h: 0.59 %ID/g
  tissue uptake at 24 h: 0.61 %ID/g
  tissue uptake at 48 h: 0.4 %ID/g
  tissue uptake at 72 h: 0.27 %ID/g
  tissue uptake at 120 h: 0.34 %ID/g
  tissue uptake at 168 h: 0.27 %ID/g
[1]; tumor uptake (AV)
  tissue uptake at 1 h: 3.35 %ID/g
  tissue uptake at 4 h: 10.6 %ID/g
  tissue uptake at 24 h: 27.6 %ID/g
  tissue uptake at 48 h: 57.4 %ID/g
  tissue uptake at 72 h: 86.4 %ID/g
  tissue uptake at 120 h: 120 %ID/g
  tissue uptake at 168 h: 127 %ID/g
[2]; 168 h p.i.
  tumor uptake (AV): 153.48 ± 37.76 %ID/g
[2]; mouse, in vivo
  AUC for tumor accumulation compared to monovalent counterpart: almost double
  AUCTu-to-AUCBl: 26
  AUCTu-to-AUCKi: 1.4
  AUCTu-to-AUCLi: 20
  AUCTu-to-AUCLi ratio compared with monovalent version of the ligand: 0.7 fold
  blood clearance: duration of excretion: 72 h
  maximal tumor uptake compared to counterpart without dedicated albumin binder: twelve times higher
[2]; [4]
  AUC Blood: 249 ± 10.4 %ID/g.h
  AUC Kidneys: 4519 ± 193 %ID/g.h
  AUC Liver: 328 ± 15.8 %ID/g.h
  AUC Tumor: 6455 ± 411 %ID/g.h
[3]; 72, 120 and 168 h p.i.
  H&E stain of tumor tissue (necrosis): necrotic lesions in the group 72 h p.i.
[3]; mouse, in vivo
  average γH2AX histoscore, kidney: 99
